Measurements published in US20250011413A1 (MCMASTER UNIVERSITY, published 2025).

T1: PF4/heparin complex (human PF4 complexed with heparin) (human, UniProt P02776 32-101)
T1 construct: Multimeric complex of PF4 with heparin (not a protein); In the EIAs: PF4 captured on biotinylated heparin on streptavidin plates; In the SRA: platelets with 0.2 U/mL heparin; also called PF4 and heparin complexes
T1 sequence: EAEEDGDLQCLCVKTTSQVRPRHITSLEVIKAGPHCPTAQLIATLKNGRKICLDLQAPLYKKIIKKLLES

T2: Human PF4 (CXCL4), biotinylated, without heparin (human, UniProt P02776 32-101, biotinylated with EZ-link-Sulfo-NHS-LC-Biotin (sites not given))
T2 construct: Immobilised on streptavidin biosensors for BLI; also called PF4 alone; platelet factor 4
T2 sequence: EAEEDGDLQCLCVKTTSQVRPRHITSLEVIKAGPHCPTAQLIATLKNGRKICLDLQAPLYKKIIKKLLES


Tests used:
[1] = biological target: T1, PF4/heparin complex (human PF4 …); assay: competition EIA, scFv 50 µg/mL; competitor HIT-positive sera antibodies, n=10
[2] = biological target: T2, Human PF4 (CXCL4), biotinylated, …; assay: BLI (Octet), biotinylated PF4 without heparin on streptavidin sensors, scFv at 1 µg/mL, 1:1 model, mean ± s.d. [cont.) b]
Experimental: (§1) BLI experiments were performed using wildtype scFv, mutant B, mutant C, mutant D, mutant E, and mutant F at 1 μg/mL. Binding was measured against immobilized biotinylated PF4 on streptavidin biosensors. b) Table showing kinetic data of wildtype and mutant scFv, including binding responses and association and dissociation rates. All data was analyzed based on a 1:1 homogenous ligand binding model using Octet® User Software version 3.1.
(§2) The Octet-QK Red 96 (FortéBio, Menlo Park, CA) instrumentation was used to conduct all BLI experiments. A 96-well microtiter plate (black, flat-bottom) was used to hold 200 μL per well of either sample or buffer. Pre-coated streptavidin biosensor tips (FortéBio) were hydrated in phosphate buffered saline (PBS) containing 1% bovine serum albumin (BSA, Sigma-Aldrich) before performing all kinetic assays. Each step was performed at an operating temperature of 23° C. with agitation at 1000 rpm. Streptavidin tips were first equilibrated in PBS+1% BSA to establish a baseline. […] The PF4-coated tips were then dipped into PBS+1% BSA for 13 minutes to re-establish a baseline. Tips were then incubated in an analyte solution containing half-fold dilutions of wildtype scFv (4.0, 2.0, 1.0, 0.5, 0.25 μg/mL in PBS+1% BSA) for 10 minutes to measure association. For mutant scFv association, tips were incubated in an analyte solution containing 200 μL of each mutant and wildtype scFv at a final concentration of 1 μg/mL in PBS+1% BSA. Antibody dissociation steps were performed by dipping sensors in wells containing PBS+1% BSA for 56 minutes. The following negative controls included in these kinetic experiments were also measured: 200 μL of buffer to replace both the antigen and scFv and 200 μL buffer replacing scFv only. Each experiment was performed with PF4 or with PF4/heparin as the immobilized antigen.
(§3) BLI experiments were performed to evaluate binding responses and affinities of wildtype and mutant scFv. Biotinylated PF4 alone or complexed with heparin was immobilized on streptavidin biosensors and used to capture wildtype scFv.

[3] = biological target: T1, PF4/heparin complex (human PF4 …); assay: competition EIA, scFv 50 µg/mL; competitor HIT-negative sera antibodies, n=10
Experimental: (§4) Inhibitory PF4/heparin IgG-specific Streptavidin Enzyme Immunoassay (EIA). The binding activity of wildtype and mutant scFv antibodies to PF4/heparin complexes was measured using an inhibitory PF4/heparin IgG-specific EIA with a streptavidin-biotin capture system. Before performing this protocol, 96-well NUNC Maxisorp plates (ThermoFisher) were coated with 10 μg/mL streptavidin for 24 h. Plates were then blocked with 3% bovine serum albumin (BSA) in phosphate buffered saline (PBS) for 2 h at room temperature. Plates were then coated with 1 U/mL biotinylated-heparin for 1 h followed by 30 μg/mL PF4 for 1 h. Increasing concentrations of wildtype or mutant scFv were added and incubated for 1 hr at room temperature. Without removing wildtype or scFv, HIT patient sera in a 1:50 dilution or full-length KKO (2 μg/mL) was then incubated for 1 h at room temperature. After washing, alkaline phosphatase-conjugated anti-human or anti-mouse IgG (Jackson Immuno Research Laboratories, Inc., West Grove, PA) was added at a 1:4000 dilution and incubated for 1 h temperature. For detection, 1 mg/mL p-nitrophenylphosphate (PNPP, Sigma-Aldrich) substrate dissolved in 1 mol/L diethanolamine (DEA) buffer (pH 9.6) was added. The optical density (OD) was measured at 2 min intervals for 30 min at 405 nm (OD₄₀₅ₙₘ) using a BioTek 800 TS plate reader (BioTek Instruments Inc., Winooski, VT) to determine if anti-PF4/heparin antibody binding was inhibited. Results were reported as a decrease in OD (absorbance at 405 nm) from baseline levels.
Sera (n=10) from confirmed HIT-negative patients (EIA-positive/SRA-negative) containing anti-PF4/heparin antibodies were then used in the same EIA with scFv constructs to determine if antibody binding was decreased in this cohort (Table 5).

[4] = biological target: T1, PF4/heparin complex (human PF4 …); assay: BLI (Octet), biotinylated PF4/heparin on streptavidin sensors, scFv at 1 µg/mL, 1:1 model, mean ± s.d.
Experimental: as §1, with “PF4/heparin complexes” for “PF4”, “Octet®)” for “Octet®”
as §2, §3

[5] = biological target: T2, Human PF4 (CXCL4), biotinylated, …; assay: BLI (Octet), biotinylated PF4 without heparin on streptavidin sensors, scFv 1 µg/mL, 1:1 model
Experimental: as §2
BLI experiments were performed to evaluate binding responses and affinities of wildtype and mutant scFv. Biotinylated PF4 alone or complexed with heparin was immobilized on streptavidin biosensors and used to capture wildtype scFv. Half-fold serial dilutions of wildtype scFv ranging from 0.25 μg/mL to 4 μg/mL were used to determine the optimal concentrations for future experiments PF4 (PF4 FIG. 3; PF4/heparin FIG. 4).

[6] = biological target: T1, PF4/heparin complex (human PF4 …); assay: competition EIA, scFv 50 µg/mL; competitor HIT-positive sera antibodies, n=10; remark: listed apart in the source
Experimental: as §4
Inhibiting HIT-Positive (EIA+/SRA+) HIT-Negative (EIA+/SRA−) antibody binding: Sera (n=10) from confirmed HIT-positive patients (EIA-positive/SRA-positive) containing anti-PF4/heparin antibodies were used in a modified streptavidin-biotin based anti-PF4/heparin IgG EIA (streptavidin anti-PF4/hep EIA) with scFv at 50 μg/mL. On average, antibody binding to PF4/heparin was reduced in the presence of scFv.

mean % inhibition of serum antibody binding [1] [%] | koff [2] [s⁻¹] | kon [2] [M⁻¹ s⁻¹] | mean OD405nm of bound serum IgG (+ scFv) [3] [OD405nm] | koff [4] [s⁻¹] | kon [4] [M⁻¹ s⁻¹] | Kd [5] [nM] | mean OD405nm of bound serum IgG (+ scFv) [6] [OD405nm] | fold stronger affinity than wildtype scFv [5] [fold] | fold change of KD against wildtype scFv [5] [fold] | Binder
44.7 | 0.00255 | 12500 | 1.41 | 0.000519 | 96700 | 1320 | 0.931 | – | – | Wildtype scFv (KKO-derived single chain variable fragment) (scFv, VL-(G4S)3 linker-VH; expressed in E. coli BL21 from pADL-22c, purified on Ni-NTA as histidine-tagged scFv, about 28 kDa; also called WT; KKO-scFv; not shown: histidine tag from the pADL-22c vector) scFv: DIQMIQSQKFMSTSVGDRVTVTCKASQNVGTNVAWYQQKPGQSPNALIYSASYRYSGVPDRFTGSGSGTDFTLTITNVQSEDLADYFCQQYNSYPLTFGTGTKLDLKGGGGSGGGGSGGGGSVQLQQSGAELVKPGASVKLSCKASGYTFTNYFIYWVKQRPGQGLEWIGEINPRNGDTDFNEKFESRATLTVDKSSSTAYMQLSSLTSEDSAIYYCTRSPYGNNYGFTYWGQGTLVTVSA
80 | 2.52e-05 | 42200 | 1.19 | 1.41e-05 | 50900 | 0.607 | 0.281 | – | – | Mutant F scFv, scFv(E183V, E186K, G223R) (scFv, VL-linker-VH; histidine-tagged, from E. coli BL21; also called Mut F; not shown: histidine tag from the pADL-22c vector) scFv: DIQMIQSQKFMSTSVGDRVTVTCKASQNVGTNVAWYQQKPGQSPNALIYSASYRYSGVPDRFTGSGSGTDFTLTITNVQSEDLADYFCQQYNSYPLTFGTGTKLDLKGGGGSGGGGSGGGGSVQLQQSGAELVKPGASVKLSCKASGYTFTNYFIYWVKQRPGQGLEWIGEINPRNGDTDFNVKFKSRATLTVDKSSSTAYMQLSSLTSEDSAIYYCTRSPYRNNYGFTYWGQGTLVTVSA
78.3 | 0.000103 | 25700 | 1 | 3.47e-05 | 12900 | 5.83 | 0.283 | 1000 | – | Mutant D scFv, scFv(Y156H) (scFv, VL-linker-VH; histidine-tagged, from E. coli BL21; also called Mut D; not shown: histidine tag from the pADL-22c vector) scFv: DIQMIQSQKFMSTSVGDRVTVTCKASQNVGTNVAWYQQKPGQSPNALIYSASYRYSGVPDRFTGSGSGTDFTLTITNVQSEDLADYFCQQYNSYPLTFGTGTKLDLKGGGGSGGGGSGGGGSVQLQQSGAELVKPGASVKLSCKASGYTFTNYFIHWVKQRPGQGLEWIGEINPRNGDTDFNEKFESRATLTVDKSSSTAYMQLSSLTSEDSAIYYCTRSPYGNNYGFTYWGQGTLVTVSA
77.8 | 5.07e-05 | 30200 | 1.1 | 3.91e-05 | 27600 | 1.69 | 0.275 | – | 1000 | Mutant B scFv, scFv(R18K, N152K, D180N) (scFv, VL-linker-VH; histidine-tagged, from E. coli BL21; also called Mut B; not shown: histidine tag from the pADL-22c vector) scFv: DIQMIQSQKFMSTSVGDKVTVTCKASQNVGTNVAWYQQKPGQSPNALIYSASYRYSGVPDRFTGSGSGTDFTLTITNVQSEDLADYFCQQYNSYPLTFGTGTKLDLKGGGGSGGGGSGGGGSVQLQQSGAELVKPGASVKLSCKASGYTFTKYFIYWVKQRPGQGLEWIGEINPRNGDTNFNEKFESRATLTVDKSSSTAYMQLSSLTSEDSAIYYCTRSPYGNNYGFTYWGQGTLVTVSA
76.5 | 0.000124 | 69300 | 1.08 | 2.78e-05 | 79200 | 0.954 | 0.319 | 10000 | – | Mutant E scFv, scFv(Y156H, D180G, Q233P) (scFv, VL-linker-VH; histidine-tagged, from E. coli BL21; also called Mut E; not shown: histidine tag from the pADL-22c vector) scFv: DIQMIQSQKFMSTSVGDRVTVTCKASQNVGTNVAWYQQKPGQSPNALIYSASYRYSGVPDRFTGSGSGTDFTLTITNVQSEDLADYFCQQYNSYPLTFGTGTKLDLKGGGGSGGGGSGGGGSVQLQQSGAELVKPGASVKLSCKASGYTFTNYFIHWVKQRPGQGLEWIGEINPKNGDTGFNEKFESRATLTVDKSSSTAYMQLSSLTSEDSAIYYCTRSPYGNNYGFTYWGPGTLVTVSA
